Laboratory results reported in patent US20220356497A1, “COMPOSITIONS AND METHODS FOR SYNTHESIS OF TERPENOIDS” (Zymergen Inc., priority 2019, published 2022).
Entries after “also recorded” stand apart in the source; their conditions may differ.

B1: NcatNOR34: candidate nepetalactol oxidoreductase (NOR) from Nepeta cataria, protein SEQ ID NO: 578 (protein, listed as Nepeta cataria)
chain: MAFCRSSLLLRKALGGSRRAAAAATCSSAYACGWQSERGRWYSGGEGTTISAPGYHVNTAPSHMTGAVFWDKDKPITYEEFEMPRPKANEVLIKTKACGACHSDLHVIKGDLKFPCPCILGHEITGEVVEHGPLTETKYIERYPVGSKVIGAFIMPCGSCFYCSRGEDDLCEPYFAYNRAKGTLYDGQTRLFLRGSGKPVHMWSMSGLAEYCVTPVNGLGALPDTLPYAESSVLGCAVFTAYGAIAHAAEVKPGNSVAVIGIGGVGSSCLQIAKAFGASEIIAVDVEDGKLETAKTFGATHIINSRKEDAIAKIKELTDGRGVDIAVEAIGGPKTFAQCVGSVRAGGKAVMIGLSPTGGKGEVEITQLVRRKVKVIGSYGGRAMTDLPKLVELAEQGTFNLEAAVTRRYKFEEVAQAYQDLQNKTIVGRGVIEIM
B2: GAR_NOR15: NOR candidate (SEQ ID NO: 1393) expressed in Saccharomyces cerevisiae from pESC-URA (protein)
chain: MADKEGEVVCVTGGSGFIGSWLVSLLLRRGYSVRATVKNLGDERETKHLEAIEGADSRLSLFQIDLLDYDSVATAVGDAAGVFHLASPCTIDQVNDPQRELLDPAIKGTLNVLKAAKNLGVRRVVVTSSISAMIASSNSLAETGEDCWIDEDYCRQNGLWYPVSKALAEKAAWKLAEENGLDIVVVNPGMVVGPILPPALNSSMQLMLHVLQGKDFFEGFFMGLVHVKDVALAQILLYENTSASGRHLCVESLSRYDDFAKQMEKLYPEYKLPRFSNNAQHGSLKSDAALKKLRDLGIEFAPLEQIVKDSIESLRSKGYIS
modifications: Nepeta cataria or Nepeta mussinii
B3: NcatNOR15: candidate nepetalactol oxidoreductase (NOR) from Nepeta cataria, protein SEQ ID NO: 561 (protein, listed as Nepeta cataria)
chain: MAKTPETEHPVKAFGYAATDNSGTFSPFKFSRRATGERDVQFKVLYCGVCHSDLHMVKNEWGVTHYPIVPGHEIVGVATEVGSKVEKVKVGDKVGVGVIVGSCRQCDQCSNDLENYCSKQILTYGAPYLDGTITRGGYSDIMVADEHFIIRWPENFPLDAGAPLLCAGITTYSPLRYFGLDKPGLRVGVNGLGGLGHVAVKFAKAFGTKVTVISSSLRKKKEAVEKLGVDEFLVSTDPEQMQAAIGTLDGIIDTVSAEHSVVSLLSLLKPHGRLIVVGAPEKPHQLPAFPLITGRKSISGSAIGGMKETQEMIDFAAKHNILPDVEVIPIDYINTAMERLLKSDVKYRFVIDVEKSLKA
B4: NcatNOR21: candidate nepetalactol oxidoreductase (NOR) from Nepeta cataria, protein SEQ ID NO: 566 (protein, listed as Nepeta cataria)
chain: MAKSVNAVGWAARDTSGLLSPLKFARPAAGDRDVQFKVLYCGICHSDLHSIKNEWGNTQYPIVPGHEIVGVVTAVGPKATKFKAGDKVGVGCLVNSCRHCDQCAADLENYCPQLVQTYNSVLADGSVTYGGYSDVMTADEDFVIRWPENFPMDKGAPLLCAGVTTYSPLRYYGLDKPGLHIGVVGLGGLGHVAVKFAKAFGMKVTVISTSAGKKKEAIETLGADAFLISRDASEMQAAAGTLDGMIDTVSAQHPLPPLLSLLKPHGKLILVGAPEKPFELPAFPLLMGRKTVAGSVIGGLKETQEMIDFAAKHNLLPEVEMIPMDYVNTAMERLAKADVKYRFVIDVGNTLTKAD

Columns and labels:
nepetalactol [1] = assay: In vitro characterization of NOR candidates: conversion of nepetalactol to nepetalactone in clarified E. coli cell lysate (GC-MS); assay type: biochemical, Escherichia coli; settings: NAD+ or NADP+, 30° C., 2 hours
Method: The plasmids were individually transformed into chemically competent BL21 (DE3) cells. pUC19 was also transformed into BL21 (DE3) to produce a strain that could serve as a negative control. Transformants were selected and grown overnight with shaking in LB medium containing kanamycin. Glycerol stocks were prepared by mixing overnight culture with 50% glycerol in a 1:1 ratio. Glycerol stocks were frozen at −80° C.
BL21 (DE3) strains were streaked out on LB plates containing kanamycin from glycerol stock and grown overnight at 37° C. A single colony was inoculated into 4 mL of LB medium containing kanamycin in 15 mL disposable culture tubes and incubated overnight at 30° C. with shaking at 250 rpm. 500 μL of the overnight culture was subcultured into 50 mL of LB medium containing kanamycin in a 250 mL baffled flask. The culture was grown at 37° C. and the optical density at 600 nm (OD600) was monitored. When OD600 reached between 0.6-1, the cultures were cooled on ice for 15 minutes. The cultures were then induced with 100 μM of isopropyl β-D-1-thiogalactopyranoside and incubated at 15° C. with shaking at 250 rpm for roughly 20 hours. Cultures were pelleted by centrifugation in 50 mL centrifuge tubes. The supernatant was decanted and the pellets were frozen at −20° C. for later processing.
Pellets were thawed on ice and resuspended with 3 mL of cold lysis buffer: 50 mM sodium phosphate, pH=7.4, 100 mM sodium chloride. All remaining steps were performed either on ice or at 4° C. The cell mixture was transferred to a 15 mL centrifuge tube and disrupted with three rounds of sonication using the Branson Sonitier 450 with a double-level microtip at 70% amplitude. A single round of sonication consisted of 6 cycles of 10 seconds with the sonicator on, and 10 seconds off Between each round, the cell mixture was allowed to sit on ice for a minute to cool. The lysed cell mixture was transferred to 1.7 mL centrifuge tubes and centrifuged at maximum speed in a microcentrifuge for 20 minutes. The supernatant (clarified cell lysate) was collected in a separate tube and used for in vitro characterization.
The in vitro reactions were setup as follows: 2 μL of 100 mM NAD+ or NADP+ and 10 μL of 100 uM nepetalactol was added to 188 μL of the clarified cell lysate. The reactions were incubated at 30° C. shaking at 200 rpm for 2 hours. As a positive control, 2 μL of 100 mM NAD+, 2 μL of 100 mM NADP+ and 10 μL of 100 μM nepetalactone was added to 186 μL of clarified lysate from a strain harboring pUC 19 and incubated for 1 hr. The reactions were extracted with one volume of ethyl acetate. The organic layer was withdrawn and analyzed with gas chromatography coupled to mass spectrometry (GC-MS). Authentic standards were run to confirm identities of analytes.

nepetalactol [2] = assay: Production of nepetalactone from fed nepetalactol in Saccharomyces cerevisiae strains expressing NOR candidates from pESC-URA; assay type: cell-based; settings: 100 mg/L nepetalactol, 2% galactose, 24 hours
Method: The plasmids were individually transformed into chemically competent Saccharomyces cerevisiae cells as described in EXAMPLE 2. Transformants were selected on SD-URA agar plates. Three to four replicates were picked into SD-URA liquid medium and cultured at 30° C. for one to two days with shaking at 1000 rpm. Cultures were glycerol stocked at a final concentration of 16.6% glycerol and stored at −80° C. until later use.
10 μL of the glycerol stocked strains was inoculated into 300 μL of minimal media lacking uracil, and containing 4% glucose in 96-well plates to produce seed cultures. The plates were incubated at 30° C. at 1000 rpm for 1-2 days. 10 μL of the seed cultures was then inoculated into 300 μL of minimal media lacking uracil, and containing 2% galactose and 100 mg/L of nepetalactol. 30 μL of methyl oleate was next added to the wells. […]
Cell density was determined using a spectrophotometer by measuring the absorbance of each well at 600 nm. […] The plates were shaken for 25 sat 750 rpm immediately before being measured on a Tecan M1 000 spectrophotometer. […] The plates were centrifuged and the ethyl acetate layer was collected and analyzed by liquid chromatography coupled to mass spectrometry (LC-MS). Target analytes were quantified against authentic standards.

Row | Molecule | conversion (oxidation) of nepetalactol to nepetalactone (nepetalactol [1]) | nepetalactone produced (nepetalactol [2]) | conversion (oxidation) of nepetalactol to nepetalactone (nepetalactol [1]; listed as NcatNORI5)
1 | B1 | can convert nepetalactol to nepetalactone; also recorded: can oxidize nepetalactol to nepetalactone |  | 
2 | B2 |  | 93 mg/L | 
3 | B3 | can convert nepetalactol to nepetalactone |  | can oxidize nepetalactol to nepetalactone
4 | B4 | can convert nepetalactol to nepetalactone; also recorded: can oxidize nepetalactol to nepetalactone |  | 
